Measurements from US20090170219.

Test system: IgG Fc fragment (IgG-Fc) (human), P01857-1
Test: SPR
Conditions: 2'-F at all pyrimidines; solution A

GGGACACAAUGGACGGCCAACGUUAACUGGAACUGUAAAUCAGGUGCUCGAGAUAACGGCCGACAUGAGAG [SEQ ID NO:4]
Kd: 6 pM

GGGACACAAUGGACGUCAAAGAAGAGGUGCUCUGCGAGCCACGCGGAACUCUAUAACGGCCGACAUGAGAG [SEQ ID NO:2]
Kd: 7400 pM

GGGACACAAUGGACGAAAGGUGCUCCAACUAAAUUUGGAACUUUCCACCCAUAAUAACGGCCGACAUGAGAG [SEQ ID NO:8]
Kd: 7000 pM

GGGACACAAUGGACGACUACAAGGUGCUCCUUGAAAUGUUAAAUGAGGAACUUGUAACGGCCGACAUGAGAG [SEQ ID NO:5]
Kd: 0.6 pM

GGGACACAAUGGACGAGUUACAGGUGCUCCAUCAACAAAAUGUUACAUGGAACUGUAACGGCCGACAUGAGAG [SEQ ID NO:1]
Kd: 1.1 pM

GGGACACAAUGGACGGCGUAAAAUGGAACCUGGGUUAGAAUAUCGGGGGUGCUCCGUAACGGCCGACAUGAGAG [SEQ ID NO:3]
Kd: 0.5 pM

GGGACACAAUGGACGGGUGUUACAGGUGCUUGAUAAAGGUAGAAAAUCAAACUGUAACGGCCGACAUGAGAG [SEQ ID NO:7]
Kd: 1 pM

GGGACACAAUGGACGGCUGGUAAGGUGCUCGGAAUGGAACUCGUCAUUCGGAACUUAACGGCCGACAUGAGAG [SEQ ID NO:6]
Kd: 3000 pM
